The values that follow come from patent US20170204167A1 (INSTITUTE FOR RESEARCH IN BIOMEDICINE, published 2017).

Some results are limits rather than exact numbers.

One assay concerns the target HA of H5 A/VN/1194/04 (influenza A virus H5 A/VN/1194/04). As to the kind of experiment: cell-based or functional assay.
Assay [1] concerns the target T1, HA of H7N1 A/ck/FPV/Rostock/34 (influenza A virus H7N1 …, UniProt P03459 19-563). As to the kind of experiment: cell-based or functional assay.
Assay [2] concerns the target HA of H13N6 A/gull/Maryland/704/77 (ELISA antigen) (influenza A virus H13N6 …, UniProt P13103 19-532). In words: ELISA on recombinant or purified HA. (In general: ELISA stands for enzyme-linked immunosorbent assay.)
In assay [3] the target is HA of H2N2 A/Singapore/1/57 (influenza A virus H2N2 A/Singapore/1/57, UniProt Q67333 16-525). As to the kind of experiment: ELISA on recombinant or purified HA.
Assay [4] deals with HA of H4N6 A/duck/Czechoslovakia/56 (ELISA antigen) (influenza A virus H4N6 …, UniProt P19696 17-527). In words: ELISA on recombinant or purified HA.
Assay [5] concerns the target HA of H12N5 A/duck/Alberta/60/76 on transfected 293 cells (influenza A virus H12N5 …, UniProt P03446 17-564). As to the kind of experiment: staining of HA-transfected 293 cells.
For assay [6], the target named is HA of H14N5 A/mallard/Astrakhan/263/82 on transfected 293 cells (influenza A virus H14N5 …, UniProt P26136 18-568). As to the kind of experiment: staining of HA-transfected 293 cells.
A further assay addresses HA of H5N1 A/HK/491/97 (influenza A virus H5N1 A/HK/491/97). In words: cell-based or functional assay.
The target in assay [7] is HA of H7N1 A/ck/IT/13474/99 (influenza A virus H7N1 A/ck/IT/13474/99). As to the kind of experiment: cell-based or functional assay.
A further assay deals with HA of H5N1 A/INDO/5/05 (influenza A virus H5N1 A/INDO/5/05). In words: cell-based or functional assay.
A further assay has as its target HA of H5N1 A/HK/213/03 (influenza A virus H5N1 A/HK/213/03). In words: cell-based or functional assay.
A further assay has as its target HA of H5N1 A/AH/1/05 (influenza A virus H5N1 A/AH/1/05). As to the kind of experiment: cell-based or functional assay.
Assay [8] addresses T1, HA of H7N1 A/ck/FPV/Rostock/34. As to the kind of experiment: cell-based or functional assay. The source holds these as a separate data set.
The target in the next assay is HA of H5N1 A/WS/MONG/05 (influenza A virus H5N1 A/WS/MONG/05). As to the kind of experiment: cell-based or functional assay.
The next assay has as its target HA of H1N1 A/PR/8/34 (influenza A virus H1N1 A/PR/8/34, UniProt P03452 18-565). As to the kind of experiment: cell-based or functional assay.

B1: FI6 variant 3 (antibody, V domains shown)
VH: QVQLVESGGGVVQPGRSLRLSCAASGFTFSTYAMHWVRQAPGKGLEWVAVISYDANYKYYADSVKGRFTISRDNSKNTLYLQMNSLRAEDTAVYYCAKDSQLRSLLYFEWLSQGYFDYWGQGTLVTVSS
VL: not shown
As for B1, in the assay with HA of H5 A/VN/1194/04, the “Neutralization H5 A/VN/1194/04 IC50 (µg/ml), pseudovirus” value was determined as 0.0035 µg/mL. In assay [1], the “Neutralization H7 A/ck/FPV Rostock/34 IC50 (µg/ml), pseudovirus” value worked out at 0.0274 µg/mL. In addition, the EC50 is 0.062 µg/mL in [2], 0.021 µg/mL in [3] and 0.185 µg/mL in [4]. Moreover, the binding result in assay [5] and in assay [6] was “binds” each time.

B2: FI28 variant 1 (antibody, V domains shown)
VH: EVQLVESGGGAVQPGESLKLSCAASGFTFSNYGMHWVRQAPGKGLEWVAVISYDGSNKYYADSVKGRFTISRDNSKDTLYLQMNSLRAEDTALFYCAKERPLRLLRYFDWLSGGANDYWGQGTLVTVSS
VL: DIVMTQSPDSLAVSLGERATINCKSSQSVLYSSNNKNYLAWYQQKPGQPPKLLIDWASTRESGVPDRFSGSGSGTDFTLTISNLQVEDVAVYYCQQYYRSPSFGQGTKLEIK
As to B2, the “Neutralization of HA-pseudotypes (IC90, µg/ml)” value (from here on “Neutralization of HA-pseudotypes”) with HA of H5N1 A/HK/491/97 was 0.05 µg/mL; in assay [7], over 100 µg/mL; with HA of H5N1 A/INDO/5/05 it was 0.35 µg/mL; in the assay with HA of H5N1 A/HK/213/03 it was 0.33 µg/mL; in the assay with HA of H5N1 A/AH/1/05, 0.05 µg/mL; in assay [8], over 100 µg/mL. In the assay with HA of H5N1 A/WS/MONG/05, the “Neutralization of HA-pseudotypes” value is 0.04 µg/mL. Moreover, the “Neutralization of infectious viruses (IC50, µg/ml)” value with HA of H1N1 A/PR/8/34 was over 100 µg/mL.

B3: FI6 variant 2 (antibody, V domains shown)
VH: QVQLVQSGGGVVQPGRSLRLSCVASGFTFSTYAMHWVRQAPGRGLEWVAVISYDGNYKYYADSVKGRFSISRDNSNNTLHLEMNTLRTEDTALYYCAKDSQLRSLLYFEWLSQGYFDPWGQGTLVTVTS
VL: DIQMTQSPDSLAVSLGARATINCKSSQSVTFNYKNYLAWYQQKPGQPPKVLIYWASARESGVPDRFSGSGSGTDFTLTISSLQAEDVAVYYCQQHYRTPPTFGQGTKVEIK
For the molecule B3, the “Neutralization H5 A/VN/1194/04 IC50 (µg/ml), pseudovirus” value with HA of H5 A/VN/1194/04 worked out at 0.0054 µg/mL. Also, the “Neutralization H7 A/ck/FPV Rostock/34 IC50 (µg/ml), pseudovirus” value in assay [1] worked out at 0.02 µg/mL. The “Neutralization of HA-pseudotypes” value with HA of H5N1 A/HK/491/97 amounted to 0.07 µg/mL; in assay [7], 1.87 µg/mL; with HA of H5N1 A/INDO/5/05, 0.31 µg/mL; with HA of H5N1 A/HK/213/03, 0.02 µg/mL; with HA of H5N1 A/AH/1/05 it was 0.05 µg/mL; in [8], 0.09 µg/mL. In addition, the “Neutralization of HA-pseudotypes” value with HA of H5N1 A/WS/MONG/05 was 0.03 µg/mL. Besides, the EC50 in [2] was found to be 0.088 µg/mL; in [3] it was 0.029 µg/mL. Moreover, the “Neutralization of infectious viruses (IC50, µg/ml)” value with HA of H1N1 A/PR/8/34 worked out at 2.2 µg/mL. The binding result in assay [5] and in assay [6] was “binds” in each case.

A word on the EC50: it is the concentration giving half of the maximal effect.
